{"source": "paper PMC13396810", "about": "“HELZ is a RNA-DNA helicase that resolves R loops to facilitate homologous recombination repair”", "binders": {"B1": {"name": "RNA/DNA hybrid with 5' ssRNA overhang (EMSA) (DNA:RNA)", "RNA": "UCGUAGCUCGGGAGUGCACCAGAUUCAGCAAUUAAGCUCUAAGCC", "DNA": "GTCACTTGATAAGAGGTCATTTGAATTCATGGCTTAGAGCTTAATTGCTGAATCTGGTGCTGGGATCCAACATGTTTTAAATATGCAATG"}}, "key": {"[1]": {"target": "HELZ K674N (insect-purified) (human, UniProt P42694 1-1942, K674N)", "sequence (P42694 whole entry K674N)": "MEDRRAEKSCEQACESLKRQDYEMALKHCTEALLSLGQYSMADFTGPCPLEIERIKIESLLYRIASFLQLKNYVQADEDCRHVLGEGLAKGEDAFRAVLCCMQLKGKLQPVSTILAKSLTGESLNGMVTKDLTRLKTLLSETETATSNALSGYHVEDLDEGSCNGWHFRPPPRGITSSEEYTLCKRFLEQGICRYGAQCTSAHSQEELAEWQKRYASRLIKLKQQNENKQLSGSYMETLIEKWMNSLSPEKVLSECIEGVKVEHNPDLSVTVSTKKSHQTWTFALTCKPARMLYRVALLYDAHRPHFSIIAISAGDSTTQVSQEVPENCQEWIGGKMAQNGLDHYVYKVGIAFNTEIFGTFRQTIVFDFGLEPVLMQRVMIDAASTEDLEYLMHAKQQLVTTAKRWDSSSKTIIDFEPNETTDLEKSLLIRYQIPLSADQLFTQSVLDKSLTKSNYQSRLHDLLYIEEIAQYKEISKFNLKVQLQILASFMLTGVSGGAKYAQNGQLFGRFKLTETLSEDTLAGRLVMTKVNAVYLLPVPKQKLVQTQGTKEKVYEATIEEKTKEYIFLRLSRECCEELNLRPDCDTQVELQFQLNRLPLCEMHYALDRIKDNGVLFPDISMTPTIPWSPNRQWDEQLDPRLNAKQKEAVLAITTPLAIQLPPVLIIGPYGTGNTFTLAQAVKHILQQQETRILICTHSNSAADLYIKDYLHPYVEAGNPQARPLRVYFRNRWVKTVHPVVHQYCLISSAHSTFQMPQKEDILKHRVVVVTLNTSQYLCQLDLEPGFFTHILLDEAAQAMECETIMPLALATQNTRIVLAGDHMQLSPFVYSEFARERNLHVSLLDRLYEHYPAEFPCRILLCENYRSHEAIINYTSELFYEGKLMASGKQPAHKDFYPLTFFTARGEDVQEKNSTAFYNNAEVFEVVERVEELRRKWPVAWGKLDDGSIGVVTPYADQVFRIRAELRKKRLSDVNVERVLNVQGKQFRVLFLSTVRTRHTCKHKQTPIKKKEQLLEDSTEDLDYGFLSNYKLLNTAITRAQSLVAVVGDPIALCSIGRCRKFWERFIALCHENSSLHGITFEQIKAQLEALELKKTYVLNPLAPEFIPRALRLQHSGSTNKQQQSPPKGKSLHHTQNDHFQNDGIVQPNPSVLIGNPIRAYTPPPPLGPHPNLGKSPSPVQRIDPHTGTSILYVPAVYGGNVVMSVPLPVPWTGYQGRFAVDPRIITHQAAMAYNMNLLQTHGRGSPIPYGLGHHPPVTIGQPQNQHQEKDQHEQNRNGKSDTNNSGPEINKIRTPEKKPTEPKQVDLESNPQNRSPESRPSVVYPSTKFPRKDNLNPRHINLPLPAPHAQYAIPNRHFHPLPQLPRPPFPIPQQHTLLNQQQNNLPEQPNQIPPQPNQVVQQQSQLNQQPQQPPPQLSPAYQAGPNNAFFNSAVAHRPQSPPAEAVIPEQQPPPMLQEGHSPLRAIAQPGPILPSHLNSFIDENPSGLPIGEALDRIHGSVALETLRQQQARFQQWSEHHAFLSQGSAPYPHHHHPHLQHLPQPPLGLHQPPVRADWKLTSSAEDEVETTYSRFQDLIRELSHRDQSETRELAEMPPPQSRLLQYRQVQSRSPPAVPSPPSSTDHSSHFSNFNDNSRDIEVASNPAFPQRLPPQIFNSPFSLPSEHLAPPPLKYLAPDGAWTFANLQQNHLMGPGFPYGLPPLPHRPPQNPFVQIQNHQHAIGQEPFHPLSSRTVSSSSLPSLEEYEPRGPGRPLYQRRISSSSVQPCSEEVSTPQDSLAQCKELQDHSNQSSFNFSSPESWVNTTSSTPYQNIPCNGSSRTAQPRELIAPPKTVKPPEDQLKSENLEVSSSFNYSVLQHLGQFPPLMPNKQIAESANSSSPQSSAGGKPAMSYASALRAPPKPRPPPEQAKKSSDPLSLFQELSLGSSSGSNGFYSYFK", "assay": "EMSA; no ATP; 5 nM substrate; comparable to WT; EMSA: 10 mM Tris-HCl pH 7.5, 60 mM KCl, 100 ng/ul BSA, 2 U/ul RNaseIN, 1 mM DTT, 30 min on ice, 5% native TAE gel 4 C; pull-down: 10 mM Tris-HCl pH 7.5, 100 mM", "conditions": "protein: recombinant; label: Cy5 at 5' end of RNA; 30 bp hybrid S1[16-45] with S2[31-60]; 15 nt 5' RNA overhang; 30 nt 5' and 30 nt 3' DNA overhangs"}, "[2]": {"target": "HELZ WT (insect-purified) (human, UniProt P42694 1-1942)", "sequence (P42694 whole entry)": "as the sequence (P42694 whole entry K674N) above, with N674K counted along it", "assay": "EMSA; no ATP; 5 nM substrate; EMSA: 10 mM Tris-HCl pH 7.5, 60 mM KCl, 100 ng/ul BSA, 2 U/ul RNaseIN, 1 mM DTT, 30 min on ice, 5% native TAE gel 4 C; pull-down: 10 mM Tris-HCl pH 7.5, 100 mM", "conditions": "protein: recombinant; label: Cy5 at 5' end of RNA; 30 bp hybrid S1[16-45] with S2[31-60]; 15 nt 5' RNA overhang; 30 nt 5' and 30 nt 3' DNA overhangs"}}, "data": [{"binder": "B1", "values": [{"measurement": "binding result", "setting": "[1]", "result": "binds"}, {"measurement": "binding result", "setting": "[2]", "result": "binds"}]}]}
